# Reference: article doi:10.1101/2025.02.13.638205 (2025)
# B1: recombinant Pfs230 D13D14 (K2828-E3111) (domain or fragment)
# chain: KTIGKDICKYDVTTKVATCEIIDTIDSSVLKEHHTVHYSITLSRWDKLIIKYPTNEKTHFENFFVNPFNLKDKVLYNYNKPINIEHILPGAITTDIYDTRTKIKQYILRIPPYVHKDIHFSLEFNNSLSLTKQNQNIIYGNVAKIFIHINQGYKEIHGCDFTGKYSHLFTYSKKPLPNDDDICNVTIGNNTFSGFACLSHFELKPNNCFSSVYDYNEANKVKKLFDLSTKVELDHIKQNTSGYTLSYIIFNKESTKLKFSCTCSSNYSNYTIRITFDPNYIIPE
# Key:
# [1] = biological target: B1; experiment: BLI
# [2] = biological target: W2811; experiment: BLI
Binder,Kd [1],Kd [2]
nanobody W2810 (VHH) VHH: QVQLQESGGGLVQAGGSLRLSCAASGRTFSSYAMGWFHQAPGKEREFVASISWSGGSIRYADSVKGRFTVSRDNAKNTAYLQMNSLKPEDTGVYYCAAGPYSSDYGGFGSWGQGTQVTVSS,4.8 nM,
nanobody W2812 (VHH) VHH: QVQLQESGGGLVQPGGSLRLSCAASGRTFSSYMMAWFRQSQGNERELVAGLTRSGVSAYYADSVKGRFTISRDNAKNTVYLQMNSLKPKDTAVYYCAAASTTYINHIYTNPSNYPHWGPGTQVTVSS,1.55 nM,
B1,,5.12 nM
